± gives the uncertainty stated by the source.
Assay: protein stability index of a GFP-peptide fusion (yeast GPS) (PSI 1-4); higher = more stable; sorted into four equal gates, so the index is relative within each strain
Details: doa10∆
Summary of the method: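 Sequencing reads from sorted gates were used to score each peptide. The library consisted of tiled 17-residue yeast protein peptides fused downstream of GFP on a Cherry-expressing plasmid, pooled and carried in yeast. Mid-log cultures in leucine-free medium were split into four equal gates by GFP/Cherry ratio, and each gate's plasmids were PCR-amplified and Illumina-sequenced. The protein stability index adds up, over all gates, the read frequency multiplied by the gate number.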

Row | Sequence | protein stability index
1 | NEKFEIELLSLDDDSIV [SRB4] | 2.58 ± 0.096
2 | NEQLTLLSKKHGQLKLS [RPN5] | 1.6 ± 0.066
3 | NEWIKAQEDVPYLLPYI [QCR7] | 2.42 ± 0.095
4 | NEYRLAFYQVTPEEDEE [RPL22A] | 2.52 ± 0.077
5 | NFARQLLFNNDFPLLKV [RRP40] | 2.91 ± 0.05
6 | NFGGGNNTTPSSTGNAN [YJL041W/NSP1] | 2.05 ± 0.058
7 | NFHNSKKRMNSNQERCH [RRI1] | 2.51 ± 0.062
8 | NFKDMSHVNKYGLIRGL [PRP8] | 2 ± 0.069
9 | NFLQESYEVEHVIQIPL [TAF14] | 2.49 ± 0.094
10 | NFPDEDDDDSRKSAPVD [SKP1] | 3.09 ± 0.046
11 | NFTCNRKILNFKKDLVI [SWI1] | 2.66 ± 0.081
12 | NFYLKRFISDLLWLVLI [SWI1] | 1.8 ± 0.054
13 | NGAFQNSSNLSYNNTGI [RRP4] | 2.58 ± 0.069
14 | NGEEDEVALFSQKAKLM [YLR335W/NUP2] | 1.16 ± 0.17
15 | NGNKDSSFNFNKNLPFV [SWI1] | 3.21 ± 0.058
16 | NHMLIDSLNQLEIRNKI [RGR1] | 2.97 ± 0.097
17 | NHNKTKLLKSLKNTKYF [PRP8] | 1.8 ± 0.078
18 | NHTAHNQTRKAHRNGIK [RPL29] | 1.88 ± 0.047
19 | NIDYQKGLLIWRLLFID [GRR1] | 1.9 ± 0.06
20 | NIGETAGVVQDIGSDPT [RPB9] | 2.77 ± 0.089
21 | NILIASLMDTLITPAVR [YCG1] | 1.41 ± 0.063
22 | NILLRERDSYKLLASTE [YIL149C/MLP2] | 2.59 ± 0.058
23 | NILNMSMNNDFQQQQQQ [PGD1] | 2.68 ± 0.078
24 | NINATNTSVLMKLKLMI [YCS4] | 2.08 ± 0.093
25 | NIQGITKPAIRRLARRG [HHF1] | 3.27 ± 0.1
26 | NIQHLLYGKRFFPYYVH [PRE7] | 1.25 ± 0.031

Row | Sequence | protein stability index
27 | NISGEFFRNKLKYHDFL [RPL16B] | 2.35 ± 0.063
28 | NISIITLELESFLEGSK [RGR1] | 2.44 ± 0.054
29 | NISSSQQLLPAPQLFPY [DSN1] | 2.44 ± 0.12
30 | NIVHNFKERQMMVSYPK [AAR2] | 3.04 ± 0.13
31 | NKDSIEECGRTIHRSFT [CSN12] | 3.21 ± 0.067
32 | NKEGTLEQREQNENLPS [SSN2] | 3.02 ± 0.11
33 | NKGELETQPGCNEEQTL [RPO31] | 3.21 ± 0.16
34 | NKGLVVSPYDYNHKRVS [DIB1] | 2.39 ± 0.066
35 | NKIKLNILKILSSLILK [SRB8] | 1.79 ± 0.072
36 | NKLFTEPIKLEPVKEYT [YMR129W/POM152] | 2.34 ± 0.05
37 | NKLLGNVTIAQGGVLPN [HTA1] | 1.82 ± 0.053
38 | NKLTGKQIVFEIPSETH [RPS7A] | 3 ± 0.09
39 | NKLTGKQIVFEIPSQTN [RPS7B] | 2.79 ± 0.081
40 | NKLVMKSKFNKSNRSYS [GAL11] | 2.92 ± 0.059
41 | NKNQLLKRNRIRNARSI [POP1] | 2.93 ± 0.071
42 | NKPAIKEDSTIQDSNGD [SWI3] | 2.92 ± 0.076
43 | NKQSVSNLSPDLKFKRH [DSN1] | 2.95 ± 0.11
44 | NKSFIVDQGQIYRDRST [ITC1] | 3.1 ± 0.11
45 | NKTLTFETETEVTFKNA [FAS1] | 3.15 ± 0.078
46 | NKVCRIEAASTTQDQCK [RPB8] | 2.66 ± 0.056
47 | NKVSYYGNPTSKESWRY [RTT102] | 3.23 ± 0.11
48 | NLDGTKAVKLRKSYKNQ [ROX3] | 3.43 ± 0.1
49 | NLKVELKEQSEQLKEQM [SMC4] | 3.27 ± 0.055
50 | NLLCYYNLRSLNLINAK [RPN3] | 1.48 ± 0.049
51 | NLLIQRLNFNQNSSKIV [SWI3] | 2.71 ± 0.053
52 | NLMGNRNNHNSNTSTSK [SNF12] | 3 ± 0.073

Row | Sequence | protein stability index
53 | NLNDKFGIYILTQGING [MED1] | 1.54 ± 0.04
54 | NLQAKPLVGKPKTELTK [YAR002W/NUP60] | 2.72 ± 0.098
55 | NLQIRQLFNWCLMRSLH [DSN1] | 1.26 ± 0.092
56 | NLRKSRGMLGLLEPPAK [RPO31] | 1.61 ± 0.22
57 | NLSLYEATAASHERFFL [CSN12] | 2.35 ± 0.065
58 | NLSSLIVEINNVSNTFN [YJL041W/NSP1] | 2.45 ± 0.043
59 | NLTYYNEKLECISLGST [ITC1] | 2.2 ± 0.061
60 | NLVSLLIIVTRKNYMHV [YML031W/NDC1] | 1.21 ± 0.041
61 | NNDLESVSMLLQYYILE [RRI2] | 2.94 ± 0.047
62 | NNESSDDMDIDEVNDRS [PCI8] | 3.09 ± 0.086
63 | NNGNNSTSIQYHGISKN [POP6] | 2.48 ± 0.063
64 | NNIIAEGIEKMGVRTFS [FAS2] | 2.7 ± 0.22
65 | NNKILEKCKEINVETVY [BRR2] | 1.73 ± 0.06
66 | NNKNNSITTGNDNENIV [MED2] | 2.89 ± 0.046
67 | NNNNKSINKNNKEMHTD [SSN2] | 3.01 ± 0.087
68 | NNNNNNNDDNGNNNNNN [MED2] | 3.277 ± 0.029
69 | NNNNSNNHNMRNNSNNK [SWI1] | 3.054 ± 0.029
70 | NNPLLLIVDVKQQGVGL [RPN8] | 1.27 ± 0.14
71 | NNRQLPYLVANVVEVMD [RPT5] | 2.4 ± 0.11
72 | NNSEQDQEIVIQQLHSV [ISW2] | 2.48 ± 0.06
73 | NNSLSYHSGRLLIQGPK [ITC1] | 2.45 ± 0.054
74 | NNSNSNNNDNNNSNTVA [SWI1] | 2.95 ± 0.058
75 | NNTTPSSTGNANTSNNL [YJL041W/NSP1] | 3.34 ± 0.093
76 | NNYKDLLAVAIAASYHY [RPP0] | 1.4 ± 0.065
77 | NPNSTAITADLGSSEAE [YGL172W/NUP49] | 2.56 ± 0.24
78 | NPRKRAIPNSIIKRSNG [YMR153W/NUP53] | 2.19 ± 0.091

Row | Sequence | protein stability index
79 | NPTKSKEILDNILPFLW [ECM29] | 2.26 ± 0.085
80 | NPYSSYVSQIRKHKRVS [YAR002W/NUP60] | 2.23 ± 0.081
81 | NQGVNELKYQRSLRATA [RPL15A] | 1.33 ± 0.073
82 | NQINSFWSLHSSTYYNL [NUT1] | 2.34 ± 0.064
83 | NQKTSAVAALTEVRAED [RPL8A] | 2.92 ± 0.082
84 | NQLVEPNRIKLSKEVPF [SRB5] | 2.42 ± 0.038
85 | NQMGMGTNNGMSMGGGV [YOR098C/NUP1] | 3.39 ± 0.13
86 | NQNTLKEISARRYKLLT [POP1] | 2.13 ± 0.049
87 | NQQQQQQQQQQQQRRQL [GAL11] | 2.79 ± 0.056
88 | NQSSFNFGNNGAGGLNP [YOR098C/NUP1] | 3.15 ± 0.069
89 | NQTIKEAKDAIIELENI [YIL149C/MLP2] | 3.02 ± 0.061
90 | NRTLYELADLPKLKRIG [GRR1] | 2.88 ± 0.049
91 | NRVGLTLDNIDDINKAK [ARP9] | 3.15 ± 0.056
92 | NSADVDMDAQGRSDSNT [YGL100W/SEH1] | 3.45 ± 0.096
93 | NSEISNLPKDKSGIPEF [SSN2] | 2.98 ± 0.087
94 | NSEYLKRRVTNLEFNYT [SMC2] | 2.38 ± 0.066
95 | NSIDSTSRIELELKNIG [ECM29] | 3.24 ± 0.087
96 | NSIESKNLSLQTGTKPV [COR1] | 2.72 ± 0.06
97 | NSIWGSSLRKNASGNKR [ITC1] | 1.6 ± 0.062
98 | NSLLLDSTPEEVSCKLL [YML103C/NUP188] | 2.67 ± 0.081
99 | NSLSSNLSSLIVEINNV [YJL041W/NSP1] | 2.26 ± 0.037
100 | NSQLVGKPHFSLLGGFD [PCI8] | 2.42 ± 0.087
101 | NSSNLSYNNTGISDDEN [RRP4] | 2.53 ± 0.07
102 | NSTNSNTTKPAFGGLNF [YJL041W/NSP1] | 3.29 ± 0.082

Same assay, conditions: pdr5∆

Row | Sequence | protein stability index
103 | NEEINKKSLEEDDEFED [SEM1] | 3.33 ± 0.11

Reference: the supplement of paper PMC9732359
